From paper PMC7924230, “Insights into the structure of mature streptavidin C1 from Streptomyces cinnamonensis reveal the self-binding of the extension C-terminal peptide to biotin-binding sites” (IUCrJ, 2021)
One block for each molecule: values may come before it.

Tests used:
[1] = target: streptavidin C2 from Streptomyces cinnamonensis strain KPP02129, recombinant (Streptomyces cinnamonensis); experiment: SEC-MALS; Superdex 200 10/300 GL, 20 mM Tris-HCl pH 8.0, 100 mM NaCl, 2 mM DTT; 1-2 mg/ml, 0.25 ml injected, 0.8 ml/min
[2] = target: streptavidin C2 from Streptomyces cinnamonensis strain KPP02129, recombinant (Streptomyces cinnamonensis); experiment: SDS-PAGE (oligomer bands); purified protein in 1x SDS sample buffer (1% SDS, with or without β-mercaptoethanol), incubated 20 min at 25-100°C, with or without biotin
[3] = target: streptavidin C1 from Streptomyces cinnamonensis strain KPP02129, recombinant mature form (Streptomyces cinnamonensis); experiment: SEC-MALS; Superdex 200 10/300 GL, 20 mM Tris-HCl pH 8.0, 100 mM NaCl, 2 mM DTT; 1-2 mg/ml, 0.25 ml injected, 0.8 ml/min
[4] = target: streptavidin C1 from Streptomyces cinnamonensis strain KPP02129, recombinant mature form (Streptomyces cinnamonensis); experiment: SDS-PAGE (oligomer bands); purified protein in 1x SDS sample buffer (1% SDS, with or without β-mercaptoethanol), incubated 20 min at 25-100°C, with or without biotin
streptavidin C1 = target: T1, streptavidin C1 (Streptomyces virginiae, UniProt A0ABQ3NKM7); experiment: microscale thermophoresis (MST), His-tag-labelled protein; format: binding
T1 construct: ORF Met1-Glu191 in pET-21a, E. coli BL21; His-tagged (C1-His); mature N-terminus 34-SADPR-38; homotetramer about 76 kDa
T1 sequence (A0ABQ3NKM7 26-191 limits assumed): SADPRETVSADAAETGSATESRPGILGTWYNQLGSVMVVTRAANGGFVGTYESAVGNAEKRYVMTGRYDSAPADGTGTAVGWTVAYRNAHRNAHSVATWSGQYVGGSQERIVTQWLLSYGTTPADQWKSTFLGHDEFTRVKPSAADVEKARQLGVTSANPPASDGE

streptavidin C2 = target: T2, streptavidin C2 (Streptomyces virginiae, UniProt A0ABQ3NKS0); experiment: as above; format: binding; details: read-out: apparent K d
T2 construct: gene Scinn_28310; cloned in pET-21a, E. coli BL21; His-tagged (C2-His); homotetramer about 68 kDa

avidin = target: T3, avidin (Gallus gallus, UniProt P02701); experiment: thermal unfolding, intrinsic fluorescence […] nm (Tycho NT.[…]); format: binding; details: PBS-T, 1 mg/ml protein, 4 mg/ml D-biotin
T3 construct: gene AVD; homotetramer
T3 sequence (P02701 25-152): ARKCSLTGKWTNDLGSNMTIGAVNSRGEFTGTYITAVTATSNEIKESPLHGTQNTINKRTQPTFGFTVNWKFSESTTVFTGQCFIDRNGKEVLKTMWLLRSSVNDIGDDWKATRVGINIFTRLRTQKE

[5] = target: C-terminal deletion mutant ΔC1 of streptavidin C1 (amino acids 1-161) (Streptomyces cinnamonensis); experiment: MST; Monolith NT.115; 200 nM His-tag-labelled (RED-tris-NTA) ΔC1-His or ΔC2-His, unlabelled peptide 2.4414-80 000 nM, PBS with 0.05% Tween 20, 10 min at room temperature, measured at 25°C, 40% LED power, 60% MST power, triplicate
[6] = target: C-terminal deletion mutant ΔC2 of streptavidin C1 (amino acids 1-158) (Streptomyces cinnamonensis); experiment: as above

Molecule: O=C(O)CCCC[C@@H]1SC[C@@H]2NC(=O)N[C@@H]21 [D-biotin]
- Kd (streptavidin C1): ~0.00306 nM
- Kd (streptavidin C2): 0.00306 ± 0.0008 nM
- T i (avidin): streptavidin (green) and avidin (brown) with or without biotin from differential scanning fluorimetry

Molecule: SAADVEKARQLGVTSANPPASDGE [C-Lid_ECP peptide of streptavidin C1]
- Kd [5]: 21000 nM
- Kd [6]: 7300 nM

Molecule: LGVTSANPPASDGE [ECP peptide (extension C-terminal peptide) of streptavidin C1]
- Kd [5]: 49 nM
- Kd [6]: 110 nM

Continued, values first:

- stoichiometry N [1]: 4
- stoichiometry N [2]: 4
Molecule: streptavidin C2 from Streptomyces cinnamonensis strain KPP02129, recombinant (natural protein)

- stoichiometry N [3]: 4
- stoichiometry N [4]: 4
Molecule: streptavidin C1 from Streptomyces cinnamonensis strain KPP02129, recombinant mature form (natural protein)
